Series [1] has as its target T1, KorB (ParB family protein from the IncP1 plasmid RK2) (plasmid RK2 (IncP1), UniProt P07674 1-358).
T1 construct: KorB of plasmid RK2 (IncP1), 358 amino acid residues per subunit, homodimer; also called WT KorB; ^1H-KorB; source: E. coli BL21(λDE3), His-tagged fusion, purified as described previously [21]; also partially deuterated (~70% D2O M9 medium) and ^15N-labelled
T1 sequence (looked up): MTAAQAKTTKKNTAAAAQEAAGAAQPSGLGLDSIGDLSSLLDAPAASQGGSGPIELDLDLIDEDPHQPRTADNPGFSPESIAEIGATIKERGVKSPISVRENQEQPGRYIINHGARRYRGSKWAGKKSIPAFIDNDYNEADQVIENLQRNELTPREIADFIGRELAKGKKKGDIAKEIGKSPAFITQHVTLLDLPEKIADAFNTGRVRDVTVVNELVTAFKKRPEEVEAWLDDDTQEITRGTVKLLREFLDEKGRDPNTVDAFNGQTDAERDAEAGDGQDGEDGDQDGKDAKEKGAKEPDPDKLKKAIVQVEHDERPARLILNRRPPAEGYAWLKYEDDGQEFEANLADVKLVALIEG
The experiment in a line: NMR titration; ^15N-^1H TROSY at 800 MHz of ^15N/^2D KorB (~0.1 mM dimer) titrated with unlabelled KorA (1 and 2 equivalents); 10 mM sodium phosphate pH 7.0, 100 mM NaCl, 0.1 mM EDTA, 30°C. The note with it: both partners purified.

The target of the next series is KorB;KorA (Escherichia coli (expression host); …, UniProt P07674;P03052 1-358;1-101, |). The experiment in a line: NMR (15N-1H TROSY), CD, SANS; ternary KorA/KorB/OAOB complex; Buffer, salt, pH and temperature not given in the material; NMR at 800 MHz; SANS in 0, 65 or 100% D2O. The note with it: protein: recombinant;recombinant; tags: His-tag;none; chain copies: 2;2; blunt (only one strand printed; complement implied).

The target in another series is KorA (Escherichia coli (expression host); …, UniProt P03052 1-101). The experiment in a line: CD; 1 equivalent KorA; change at 280 nm; Buffer, salt, pH and temperature not given in the material; NMR at 800 MHz; SANS in 0, 65 or 100% D2O. The note with it: protein: recombinant; tags: none; chain copies: 2; blunt (only one strand printed; complement implied).
Series [2] has as its target T2, KorB (Escherichia coli (expression host); …, UniProt P07674 1-358). The experiment in a line: CD; 1 equivalent KorB; change at 280 nm; Buffer, salt, pH and temperature not given in the material; NMR at 800 MHz; SANS in 0, 65 or 100% D2O. The note with it: protein: recombinant; tags: His-tag; chain copies: 2; blunt (only one strand printed; complement implied).
The target of another series is (NΔ150)KorB (Escherichia coli (expression host); …, UniProt P07674 151-358, del1-150). The experiment in a line: SAXS, SANS; complex mass consistent with protein + DNA (67.5 kDa calculated); Buffer, salt, pH and temperature not given in the material; NMR at 800 MHz; SANS in 0, 65 or 100% D2O. The note with it: protein: recombinant; tags: His-tag; chain copies: 2; blunt (only one strand printed; complement implied).

The target in series [3] is T2, KorB. The experiment in a line: NMR (15N-1H TROSY titration), SAXS, SANS; KorB dimer:OB 1:1; DBD and N-terminal peaks lost, CTD unaffected; Buffer, salt, pH and temperature not given in the material; NMR at 800 MHz; SANS in 0, 65 or 100% D2O. The note with it: protein: recombinant; tags: His-tag; chain copies: 2; blunt (only one strand printed; complement implied).

B1: KorA (repressor from the plasmid RK2) (natural protein, plasmid RK2 (IncP1), UniProt P03052 1-101, looked up)
chain: MKKRLTESQFQEAIQGLEVGQQTIEIARGVLVDGKPQATFATSLGLTRGAVSQAVHRVWAAFEDKNLPEGYARVTAVLPEHQAYIVRKWEADAKKKQETKR
notes: KorA of plasmid RK2; used as a dimer; the domain scheme runs from residue 1 to 101; also called ^1H-KorA; ^2D-KorA; source: E. coli BL21(λDE3), without a tag, purified as before [14]
As for B1, the “stoichiometry N” value in series [1] was 2 KorA dimers per KorB dimer.

B2: OAOB (dsDNA)
DNA 1: GGACGAGTTTTAGCGGCTAAAGGTGTTGACGTGCGAGAAATGTTTAGCTAAACTTCG
DNA 2: CGAAGTTTAGCTAAACATTTCTCGCACGTCAACACCTTTAGCCGCTAAAACTCGTCC
On to B2, for which the binding result with KorB;KorA, with KorA and with KorB [2] was “binds” in each case.

B3: OB (dsDNA)
DNA 1: CGAGAATTTTAGCGGCTAAAAAGGGC
DNA 2: GCCCTTTTTAGCCGCTAAAATTCTCG
In the case of B3, the binding result with (NΔ150)KorB and in the series with KorB [3] was “binds” throughout.
